The source of these data is the supplement of paper PMC5998384.

Series [1] has as its system HeLa Kyoto. In words: solubility in G1/S (NP-40 vs SDS abundance) (log2 ratio); higher = more soluble. As to conditions: cell cycle stage: G1/S.
Series [2] concerns HeLa Kyoto. In words: solubility change mitosis vs G1/S (difference of NP-40 vs SDS log2 ratios) (log2 ratio difference); higher = more soluble in mitosis.
The subject of series [3] is HeLa Kyoto. Description: thermal stability score vs G1/S (z-score of summed log2 fold changes over temperatures); higher = more thermally stable than in G1/S.
The mark [4] stands for this setting: cell cycle stage: early G1 (4.5 h after nocodazole release).
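Wherever solubility change mitosis vs G1/S (difference of NP-40 vs SDS log2 ratios) is given: synchronized HeLa Kyoto cells (double thymidine block for G1/S, nocodazole release for mitosis), protein amounts in NP-40 versus SDS lysates quantified by mass spectrometry, three biological replicates.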
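Wherever solubility in G1/S (NP-40 vs SDS abundance) is given: HeLa Kyoto cells arrested at G1/S by double thymidine block, proteins quantified by TMT10plex mass spectrometry in mild NP-40 versus SDS extracts, three biological replicates.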
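Wherever thermal stability score vs G1/S (z-score of summed log2 fold changes over temperatures) is given: synchronized HeLa Kyoto cells, proteins quantified by TMT10plex mass spectrometry, three biological replicates, mitosis taken 0.5 h after nocodazole release, G1/S directly after double thymidine block.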

Sequence of NOS1AP (chain, as listed by the source): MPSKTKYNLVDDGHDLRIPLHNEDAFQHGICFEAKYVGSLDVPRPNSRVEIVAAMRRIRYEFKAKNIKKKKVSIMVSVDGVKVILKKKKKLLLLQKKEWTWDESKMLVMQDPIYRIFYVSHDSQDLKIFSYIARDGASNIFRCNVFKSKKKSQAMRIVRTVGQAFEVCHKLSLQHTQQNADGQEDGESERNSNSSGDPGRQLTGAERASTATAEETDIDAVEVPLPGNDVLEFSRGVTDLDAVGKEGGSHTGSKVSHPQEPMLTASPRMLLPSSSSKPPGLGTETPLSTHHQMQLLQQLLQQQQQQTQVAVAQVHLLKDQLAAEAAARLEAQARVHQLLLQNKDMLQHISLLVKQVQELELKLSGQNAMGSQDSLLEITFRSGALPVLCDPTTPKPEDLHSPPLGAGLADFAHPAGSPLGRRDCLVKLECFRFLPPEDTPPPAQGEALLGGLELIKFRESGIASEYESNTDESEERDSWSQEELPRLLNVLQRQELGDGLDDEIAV

As for “MNPTETKAIPVSQQMEGPHLPNKKKHKKQAVKTEPEKKSQSTKLSVVHEKKSQEGKPKEHTEPKSLPKQASDTGSNDAHNKKAVSRSAEQQPSEKSTEPKTKPQDMISAGGESVAGITAISGKPGDKKKEKKSLTPAVPVESKPDKPSGKSGMDAALDDLIDTLGGPEETEEENTTYTGPEVSDPMSSTYIEELGKREVTIPPKYRELLAKKEGITGPPADSSKPIGPDDAIDALSSDFTCGSPTAAGKKTEKEESTEVLKAQSAGTVRSAAPPQEKKRKVEKDTMSDQALEALSASLGTRQAEPELDLRSIKEVDEAKAKEEKLEKCGEDDETIPSEYRLKPATDKDGKPLLPEPEEKPKPRSESELIDELSEDFDRSECKEKPSKPTEKTEESKAAAPAPVSEAVCRTSMCSIQSAPPEPATLKGTVPDDAVEALADSLGKKEADPEDGKPVMDKVKEKAKEEDREKLGEKEETIPPDYRLEEVKDKDGKPLLPKESKEQLPPMSEDFLLDALSEDFSGPQNASSLKFEDAKLAAAISEVVSQTPASTTQAGAPPRDTSQSDKDLDDALDKLSDSLGQRQPDPDENKPMEDKVKEKAKAEHRDKLGERDDTIPPEYRHLLDDNGQDKPVKPPTKKSEDSKKPADDQDPIDALSGDLDSCPSTTETSQNTAKDKCKKAASSSKAPKNGGKAKDSAKTTEETSKPKDD [CAST]”, the “solubility in G1/S (log2)” value in series [1] came out at 0.36. In addition, the “solubility change mitosis (log2)” value in series [2] turned out to be 0.0186. Moreover, the results for the thermal stability score in series [3] (setting [4]) and in series [3] (cell cycle stage: mitosis) were -1.5 and -2.61, respectively.

Regarding “MGDKGTRVFKKASPNGKLTVYLGKRDFVDHIDLVDPVDGVVLVDPEYLKERRVYVTLTCAFRYGREDLDVLGLTFRKDLFVANVQSFPPAPEDKKPLTRLQERLIKKLGEHAYPFTFEIPPNLPCSVTLQPGPEDTGKACGVDYEVKAFCAENLEEKIHKRNSVRLVIRKVQYAPERPGPQPTAETTRQFLMSDKPLHLEASLDKEIYYHGEPISVNVHVTNNTNKTVKKIKISVRQYADICLFNTAQYKCPVAMEEADDTVAPSSTFCKVYTLTPFLANNREKRGLALDGKLKHEDTNLASSTLLREGANREILGIIVSYKVKVKLVVSRGGLLGDLASSDVAVELPFTLMHPKPKEEPPHREVPENETPVDTNLIELDTNDDDIVFEDFARQRLKGMKDDKEEEEDGTGSPQLNNR [ARRB1]”, in series [1], the “solubility in G1/S (log2)” value stood at 0.139. Further, the “solubility change mitosis (log2)” value in series [2] is -0.0694. Moreover, the thermal stability score in series [3] (setting [4]) is -0.748; in series [3] (cell cycle stage: mitosis), -0.986.

“MSSECDGGSKAVMNGLAPGSNGQDKATADPLRARSISAVKIIPVKTVKNASGLVLPTDMDLTKICTGKGAVTLRASSSYRETPSSSPASPQETRQHESKPGLEPEPSSADEWRLSSSADANGNAQPSSLAAKGYRSVHPNLPSDKSQDATSSSAAQPEVIVVPLYLVNTDRGQEGTARPPTPLGPLGCVPTIPATASAASPLTFPTLDDFIPPHLQRWPHHSQPARASGSFAPISQTPPSFSPPPPLVPPAPEDLRRVSEPDLTGAVSSTDSSPLLNEVSSSLIGTDSQAFPSVSKPSSAYPSTTIVNPTIVLLQHNREQQKRLSSLSDPVSERRVGEQDSAPTQEKPTSPGKAIEKRAKDDSRRVVKSTQDLSDVSMDEVGIPLRNTERSKDWYKTMFKQIHKLNRDTPEENPYFPTYKFPELPEIQQTSEEDNPYTPTYQFPASTPSPKSEDDDSDLYSPRYSFSEDTKSPLSVPRSKSEMSYIDGEKVVKRSATLPLPARSSSLKSSSERNDWEPPDKKVDTRKYRAEPKSIYEYQPGKSSVLTNEKMSRDISPEEIDLKNEPWYKFFSELEFGKPPPKKIWDYTPGDCSILPREDRKTNLDKDLSLCQTELEADLEKMETLNKAPSANVPQSSAISPTPEISSETPGYIYSSNFHAVKRESDGAPGDLTSLENERQIYKSVLEGGDIPLQGLSGLKRPSSSASTKDSESPRHFIPADYLESTEEFIRRRHDDKEKLLADQRRLKREQEEADIAARRHTGVIPTHHQFITNERFGDLLNIDDTAKRKSGSEMRPARAKFDFKAQTLKELPLQKGDIVYIYKQIDQNWYEGEHHGRVGIFPRTYIELLPPAEKAQPKKLTPVQVLEYGEAIAKFNFNGDTQVEMSFRKGERITLLRQVDENWYEGRIPGTSRQGIFPITYVDVIKRPLVKNPVDYMDLPFSSSPSRSATASPQFSSHSKLITPAPSSLPHSRRALSPEMHAVTSEWISLTVGVPGRRSLALTPPLPPLPEASIYNTDHLALSPRASPSLSLSLPHLSWSDRPTPRSVASPLALPSPHKTYSLAPTSQASLHMNGDGGVHTPSSGIHQDSFLQLPLGSSDSVISQLSDAFSSQSKRQPWREESGQYERKAERGAGERGPGGPKISKKSCLKPSDVVRCLSTEQRLSDLNTPEESRPGKPLGSAFPGSEAEQTERHRGGEQAGRKAARRGGSQQPQAQQRRVTPDRSQTSQDLFSYQALYSYIPQNDDELELRDGDIVDVMEKCDDGWFVGTSRRTKQFGTFPGNYVKPLYL [SORBS1]”: in series [1], the “solubility in G1/S (log2)” value is -0.0532. Besides, the “solubility change mitosis (log2)” value in series [2] came out at 0.424. Also, the thermal stability score in series [3] (setting [4]) is -0.134; in series [3] (cell cycle stage: mitosis), 4.08.

For the substance “MEREPGAAGVRRALGRRLEAVLASRSEANAVFDILAVLQSEDQEEIQEAVRTCSRLFGALLERGELFVGQLPSEEMVMTGSQGATRKYKVWMRHRYHSCCNRLGELLGHPSFQVKELALSALLKFVQLEGAHPLEKSKWEGNYLFPRELFKLVVGGLLSPEEDQSLLLSQFREYLDYDDTRYHTMQAAVDAVARVTGQHPEVPPAFWNNAFTLLSAVSLPRREPTVSSFYVKRAELWDTWKVAHLKEHRRVFQAMWLSFLKHKLPLSLYKKVLLIVHDAILPQLAQPTLMIDFLTRACDLGGALSLLALNGLFILIHKHNLEYPDFYRKLYGLLDPSVFHVKYRARFFHLADLFLSSSHLPAYLVAAFAKRLARLALTAPPEALLMVLPFICNLLRRHPACRVLVHRPHGPELDADPYDPGEEDPAQSRALESSLWELQALQRHYHPEVSKAASVINQALSMPEVSIAPLLELTAYEIFERDLKKKGPEPVPLEFIPAQGLLGRPGELCAQHFTLS [NOC4L]”, the “solubility in G1/S (log2)” value in series [1] was -1.47. Also, in series [2], the “solubility change mitosis (log2)” value came out at 0.579. Further, the thermal stability score is -3.25e-17 in series [3] (setting [4]) and 3.03e-17 in series [3] (cell cycle stage: mitosis).

As to NOS1AP, the “solubility in G1/S (log2)” value in series [1] was -0.0474. For the same substance, the “solubility change mitosis (log2)” value in series [2] is -0.0377. Besides, the thermal stability score in series [3] (setting [4]) is 0.688; in series [3] (cell cycle stage: mitosis) it was 0.322.

For the substance ASPM, in series [1], the “solubility in G1/S (log2)” value was -0.625. In addition, the “solubility change mitosis (log2)” value in series [2] amounted to 0.177. The thermal stability score in series [3] (setting [4]) is 0.917; in series [3] (cell cycle stage: mitosis), -0.0273.
